Patent publication US20120301469A1

Tests used:
[1] = target: protein F of hRSV strain B-1 (on RSV B-1-infected Hep2 cells and on virus) (human respiratory syncytial virus, strain B-1) (UniProt P13843); assay: cell-based or functional assay
[2] = target: protein F of hRSV strain Long, on virus (inactivated hRSV Long, Hytest #8RSV79; RSV Long LM-2, ATCC VR-26) (human respiratory syncytial virus, strain Long) (UniProt P12568); assay: cell-based or functional assay
[3] = target: hRSV FTM-NN (membrane anchorless form of the Long fusion protein, 70 kDa) (human respiratory syncytial virus, strain Long) (UniProt P12568); assay: SPR (Biacore), FTM-NN amine-coupled on CM5 chip, 1:1 Langmuir fit

Row | Substance | Neutralization B-1 IC50 [1] [nM] | Neutralization Long IC50 [2] [nM] | Kd [3] [nM] | koff [3] [s⁻¹] | kon [3] [M⁻¹ s⁻¹]
1 | Synagis® Mab (Palivizumab, humanized monoclonal antibody) | 3.9 | 5.96 | 0.64 | 0.00018 | 280000
2 | 101F Fab (WO 06/050280, humanized monoclonal antibody, in-house produced) | 180 |  |  |  | 
